Laboratory results published in US20250152627A1, “COMPOSITIONS AND METHODS FOR ENHANCING IMMUNE CELL FUNCTION USING MODIFIED CELLS WITH GLYCOCALYX EDITING ENZYMES” (Cornell University, priority 2021, published 2025).

What was measured:
NK-92 cells = assay: Flow cytometry of mucin levels on NK-92 cells after StcE incubation; assay type: cell-based; conditions: 100 nM recombinant enzyme
Procedure: FIG. 11. StcE mucinase effectively remove cell-surface mucin on 1E7 clone and NK cell. (A) Representative confocal images of Muc1-GFP expressing 1E7 cells with and without treatment with 100 nM StcE, StcE ΔX409, or StcE-EE Zip; Alexa Fluor 647 conjugated to GFP nanobody is used to probe cell-surface Muc1-GFP constructs. (Scale bar, 10 μm). (B) Quantification of mean fluorescence intensity of Muc1-GFP and cell-surface Muc1-GFP probed with GFP nanobody in 1E7 cells treated with the indicated concentration of StcE mucinase; results are shown for induction of Muc1-GFP at 100 ng/ml and 1000 ng/ml doxycycline. (C) Cytotoxicity of NK-92 cells against 1E7 cells treated with control buffer, 100 nM StcE mucinase, or 5,000 U/mL PNGase F for 1 hour; Muc1-GFP induction is at the indicated doxycycline concentration (1,100, and 1,000 ng/ml); NK cell to target cell ratio is 5:1. (D) Flow cytometry analysis of mucin levels on NK-92 cells following incubation with control buffer or 100 nM recombinant StcE or StcE ΔX409; StcE surface level after incubation probed with anti His-tag antibody and cell-surface mucin level probed with catalytically dead StcE E447D conjugated to Cy5. Statistical significance is given by ns—not significant, *P≤0.05, **P≤0.01, ***P≤0.001, ****P≤0.0001. Results are a representative dataset from 3 independent replicates. […]

1E7 cells = assay: NK cell cytotoxicity assay against 1E7 cells; assay type: cell-based; conditions: 1E7 target cells; NK cell to target cell ratio 5:1 or 10:1
Procedure: Target MCF10A cells were fluorescently labeled by incubation with 1 M CellTracker Green CMFDA Dye (Invitrogen) in MCF10A growth media for 10 minutes. 3×10^4 labeled target cells were suspended with varying ratios of NK-92 effector cells in 200 μL of growth media of target cell line in absent of IL-2 and cocultured in an ultra-low attachment U-bottom 96-well plate (Corning) for 4 hours at 37° C. in 5% C02. For all StcE-treated NK cell experiment, unless otherwise indicated, NK cells were incubated with 100 nM StcE at 37° C. for 1 hour. Cells were thoroughly washed to remove StcE and coculture with target cells. After 4 hours, propidium iodide (PI; 20 μg/mL, Sigma) was added to each well for 10 minutes and washed with 0.5% BSA PBS. […] NK cell cytotoxicity was evaluated by flow cytometry as previously described^16,81. At least 1×10^4 target cells were analyzed after electronic gating on CellTracker Green. Percent cytotoxicity was calculated as 100×(experimental % dead−spontaneous % dead)/(100−spontaneous % dead), where experimental % dead was the percentage of PI positive target cells in NK cocultures and spontaneous % dead was the percentage of PI positive control target cells cultured in the absence of effector cells.

B1: StcE-ΔX409: StcE with a deleted C-terminal X409 lectin domain; NK cells treated with it: StcE-ΔX409 NK (protein)
chain: ADNNSAIYFNTSQPINDLQGSLAAEVKFAQSQILPAHPKEGDSQPHLTSLRKSLLLVRPVKADDKTPVQVEARDDNNKILGTLTLYPPSSLPDTIYHLDGVPEGGIDFTPHNGTKKIINTVAEVNKLSDASGSSIHSHLTNNALVEIHTANGRWVRDIYLPQGPDLEGKMVRFVSSAGYSSTVFYGDRKVTLSVGNTLLFKYVNGQWFRSGELENNRITYAQHIWSAELPAHWIVPGLNLVIKQGNLSGRLNDIKIGAPGELLLHTIDIGMLTTPRDRFDFAKDKEAHREYFQTIPVSRMIVNNYAPLHLKEVMLPTGELLTDMDPGNGGWHSGTMRQRIGKELVSHGIDNANYGLNSTAGLGENSHPYVVAQLAAHNSRGNYANGIQVHGGSGGGGIVTLDSTLGNEFSHEVGHNYGLGHYVDGFKGSVHRSAENNNSTWGWDGDKKRFIPNFYPSQTNEKSCLNNQCQEPFDGHKFGFDAMAGGSPFSAANRFTMYTPNSSAIIQRFFENKAVFDSRSSTGFSKWNADTQEMEPYEHTIDRAEQITASVNELSESKMAELMAEYAVVKVHMWNGNWTRNIYIPTASADNRGSILTINHEAGYNSYLFINGDEKVVSQGYKKSFVSDGQFWKERDVVDTREARKPEQFGVPVTTLVGYYDPEGTLSSYIYPAMYGAYGFTYSDDSQNLSDNDCQLQVDTKEGQLRFRLANHRANNTVMNKFHINVPTESQPTQATLVCNNKILDTKSLTPAPEGLTYTVN
B1 was tested, and the “trimming of mucin-domain containing proteins on NK-92 cells” value (NK-92 cells) was “trimmed similarly” and the “cytotoxicity of enzyme-equipped or enzyme-treated NK cells compared to unmodified NK-92 cells” value (1E7 cells) was “not significantly enhanced”.
